Literature values as cited in publication PMC9539805.
pKd: −log10 of the molar value.

Tests used:
[1] = target: spike protein RBD (SARS-CoV-2) (UniProt P0DTC2)
[2] = target: spike protein (SARS-CoV-2) (UniProt P0DTC2)

Q: With CV-N (from UniProt P81180) as the substance, how does the pKd [1] read?
A: The pKd was 3.59.

Q: What about the pKd [2] of the same substance?
A: The pKd was 4.73.
